Source: patent publication US20080044412A1, “Single-Domain Antibody Strengthening Fusion Protein Vh-Ldp-Ae” (INSTITUTE OF MEDICINAL BIOTECHNOLOGY CHINESE ACADEMY OF …, priority 2004, published 2008)
Values joined by “and” are separate entries in the source; they are usually repeats but may differ in a detail not shown here. Equal values may be shown once.

Legend:
[1] = system: transplanted hepatoma 22; experiment: Transplanted hepatoma 22 growth in mice; details: for Inhibition rate / Tumor volume x ± s: tail vein, day 14
Protocol: Kunming mice, weighing between 18-22 g, were randomly separated into different groups of 10 mice each. On day 0, hepatoma 22 cells (1.5×10^6 cells/0.2 ml/mouse) diluted with saline were transplanted subcutaneously into the right axilla of mice. On day 1 (after 24 h), the therapy was started and VH-LDP-AE at different doses, LDM at 0.05 mg/kg, mitomycin (MMC) at 1 mg/kg were administered respectively to the tumor bearing mice (0.2 ml/mouse) by injection into the tail vein. Mice of control group were injected with saline. Diameters of the tumors were measured every 3 days during the experiment. Weights of the mice were recorded. The tumor volumes were calculated with the following formula: V=0.5ab^2, where a and b is the long and the perpendicular short diameters of the tumor, respectively. The curves of tumor growth were plotted and the inhibition rates were calculated.

[2] = system: cecum carcinoma Hce-8693; details: nude mice; cited from earlier work
[3] = system: HT-1080 cells; experiment: MTT cytotoxicity assay, HT-1080; format: cell-based; details: 72 h
Protocol: (§1) MTT assay was used. After digestion and counting, cells in exponential growth phase were seeded at 3000 cells/well in 96-well plates, and cultured at 37° C. in 5% CO2 for 24 hours. Drugs of various concentrations were added with 3 aliquots, and the cells were cultured for another 72 h. 50 μl of MTT (2 mg/ml) in serum-free RPMI 1640 were added into each well, and the cells were cultured at 37° C. for 4 h. Remove the culture medium gently; add 150 μl DMSO each well; incubate at room temperature for 15 min on a shaker; measure the absorbance at 560 nm on a microplate reader. Survival ratio and IC50 values were calculated according to the following equation: Survival ratio=(Atest−Ablank)/(Acontrol−Ablank)×100%.

[4] = system: hepatoma Bel-7402; details: nude mice; cited from earlier work
[5] = system: colon carcinoma 26; details: cited from earlier work
[6] = system: KB cells; experiment: MTT cytotoxicity assay, KB; format: cell-based, human; details: 72 h
Protocol: as §1

[7] = system: PG cells; experiment: MTT cytotoxicity assay, PG; format: cell-based; details: 72 h
Protocol: as §1

[8] = system: solid tumor of mouse hepatoma 22; experiment: Immunohistochemical (SABC) staining of mouse hepatoma sections; format: binding; details: FIG. 7
Protocol: (§2) Immunohistochemical (IHC) staining was performed by streptavidin-biotin-peroxidase complex (SABC) staining with SABC kit (Boster Company). The sections were blocked by normal goat serum for 20 min at room temperature and the excessive liquid was removed. The sections without washing were added with diluted said VH-LDP fusion protein as prepared in example 3 and incubated at room temperature; then diluted anti-His6-tag antibody and biotinylated goat-anti-mouse IgG were added in turn. Finally SABC reagent was added. DAB kit was used as a chromogen for visualized reaction at room temperature. The sections were counter-stained by hematoxylin, dehydrated, cleared, sealed, and observed with microscope.

[9] = system: mouse normal liver sections; experiment: Immunohistochemical (SABC) staining of mouse normal liver sections; format: binding; details: FIG. 7
Protocol: as §2

[10] = State of refolded fusion protein in PBS solution; format: physicochemical
Protocol: The inventors attempted to make fusion gene in the form of VH-LDP by fusing VH domain against type IV collagenase to apoprotein LDP of LDM, and then expressing the fusion protein in E. coli.
The fusion protein VH-LDP after purification was refolded: the purified protein was diluted to a final concentration of 15 μM with eluting buffer mentioned above, and β-mercaptoethanol was added to a final concentration of 10 mM. After being stored at room temperature for 30 min, the sample was placed in a dialysis bag and dialyzed against at least 50 vol. of refolding buffer 1 (50 mM Tris-HCl pH 8.0, 1 mM EDTA, 200 mM NaCl, 6 M urea). And the following dialysis was against the same buffer with step-wise reduction in the urea concentration (3M, 2M, 1M, 0.5M, and 0M). On a 1-M stage, 750 μM of glutathione (GSSG) and 400 mM of L-Arginine were added to the dialysis buffer. Then the sample was dialyzed against 50 vol. of PBS solution (pH 7.4). Each dialysis was performed for 12 h and with buffer changed twice. All dialysis was performed at 4° C. After dialysis, the sample was centrifuged at 10,000 g for 30 min at 4° C. and the supernatant was collected. After being condensed, the active fusion protein VH-LDP was obtained and stored at −20° C. for later use.

[11] = system: type IV collagenase secreted by HT-1080 cells; experiment: Gelatin zymography in HT-1080 cells; format: cell-based; details: 24 h, 25, 50, 100 μM (FIG. 8), dependent on concentration
Protocol: Gelatin zymography protocol was used. Exponentially growing HT-1080 cells were seeded at 10^5/well in 24-well plates and incubated at 37° C. in 5% CO2. After 24 h, the culture medium was removed and 1 ml serum-free RPMI 1640 medium was added for washing twice. Add 120 μl of serum-free RPMI 1640 medium and 30 μl of fusion protein VH-LDP as prepared in example 3 to each well, and add 30 μl PBS to control well. Culturing the cells at 37° C. for 24 h. Harvest the culture medium, and centrifuging at 500 g for 5 min. Then take the supernatant for non-denaturalization electrophoresis on SDS-PAGE. Wash the gels with distilled water 3 times. Put the gels into 100 ml of 2.5% TritonX-100, shake on a shaker for 30 min at low speed. Then Wash the gels 2 times with distilled water; repeat the washing process with TritonX-100 above. The gels was washed with distilled water 2 times, and incubated at 37° C. for 16-18 h in 100 ml of gelatinase buffer (50 mM Tris-HCl, pH 7.5, 200 mM NaCl, 10 mM CaCl2, 1 μM ZnCl2). The gels were stained with Coomassie-brilliant blue R-250 and destained with acetic acid: methanol:water (10:45:45). The negative stained bands were observed.

[12] = system: human hepatoma SMMC-7721 cells; experiment: ELISA immunoreactivity with fixed SMMC-7721 cells; format: binding; details: FIG. 5
Protocol: (§3) Immunoreactivity of fusion protein VH-LDP was detected by ELISA. At first, type IV collagenase or tumor cells was coated or fixed to 96-well ELISA plates: well was coated with 100 μl of type IV collagenase (10 μg/ml, diluted by PBS) and the plates were stored at 4° C. overnight; Human hepatoma SMMC-7721 cells or human KB cells were seeded at 10^4/well in 96-well plates and cultured for 24 h, washed with PBS for 3 times, added 0.05% cold (4° C.) Glutaraldehyde and fixed for 15 min. Then the coated or fixed plates were washed with PBS 3 times, and blocked with 200 μl/well of 1% bovine serum albumin (BSA)/PBS at 4° C. overnight. The plates were washed 3 times with PBS. Then 200 μl of serial concentrations of fusion protein VH-LDP were added into each well of the plates and incubated for 2 hours at 37° C. Washing the plates 3 times with 0.05% Tween 20/PBS (PBST), adding 50 μl of anti-His6-Tag monoclonal antibody diluted 1:1500 to each well, and incubating at 37° C. for 1 h. Washing the plates 3 times with PBST, adding 50 μl of HRP conjugated goat anti-mouse IgG (at 1:2000 dilution), and incubating at 37° C. for 1 hour. Washing the plates with PBST 6 times, adding 100 μl of OPD substrate reaction solution to each well, incubating the plates at room temperature for 10 min in the dark. […] Then the optical density (OD) of each well was measured at 490 nm using a microplate reader.

[13] = system: type IV collagenase; experiment: ELISA immunoreactivity with type IV collagenase; format: binding; details: FIG. 4
Protocol: as §3

[14] = system: bFGF-stimulated angiogenesis; experiment: Chick embryo allantoic membrane (CAM) anti-angiogenesis assay; format: in vivo; details: 72 h, 0.5 μg/egg (FIG. 10)
Protocol: Anti-angiogenic activity of VH-LDP-AE was examined in chick embryoallantoic membrane assay (CAM). The surface of 7-day-old post-fertilization chick eggs (White Leghorn) in a 60% humidified incubator at 37° C. was sterilized and the CAM was […]) exposed by cutting a window (2 cm^2) on the egg shell using the false air-sac technique. After 24 h, 10 μl of bFGF was dipply added to agarose disks with the energized fusion protein VH-LDP-AE at various concentrations which was prepared as mentioned in Example 7, and then the disks were placed on top of the CAM. After the windows were sealed with transparent tape, the eggs were incubated for further 72 h.

[15] = system: human colon carcinoma HT-29 cells; experiment: MTT combination assay on HT-29 cells (CDI); format: cell-based; details: HT-29, MTT
Protocol: MTT assay was used. After trypsin-EDTA digestion, the human colon carcinoma HT-29 cells in exponential growth were seeded at 4000 cells/well in 96-well plates, and cultured for 24 hours. Then add 20 μl of different concentrations of hydroxylcamptothecin or 5-fluorouracil; 8 hours later, add different concentrations of VH-LDP-AE. Continue to culture the cells at 37° C. in 5% CO2 for 72 h. Add 50 μl of MTT at concentration of 2 mg/ml, culture the cells at 37° C. for 4 hours. Then remove the supernatant; add 150 μl DMSO each well; ten minutes later, measure the absorbance at 560 nm on a microplate reader. In cancer pharmacology, interactions of drug combination were evaluated by coefficient of drug interaction (CDI). There existed synergistic effects with CDI<1, and there existed very significant ones with CDI<0.7. […] It was usual that monoclonal antibodies were combined with anti-cancer drugs.

lidamycin [LDM]
Inhibition rate ([1]; 0.05 mg/kg): 79.6% and 79.6^ΔΔ %
Tumor volume x ± s ([1]; 0.05 mg/kg): 0.94 ± 0.53 cm^3
maximal tolerated dose ([1]; mice): 0.05 mg/kg
growth of human cancer xenograft cecum carcinoma Hce-8693 [2]: potent inhibitory effect
IC50 [3]: 2.21 pM
growth of human cancer xenograft hepatoma Bel-7402 [4]: potent inhibitory effect
growth of colon carcinoma 26 in mice [5]: remarkably inhibited
IC50 [6]: 1.08 pM
IC50 [7]: 6.3 pM

CO[C@@]12[C@H](COC(N)=O)C3=C(C(=O)C(C)=C(N)C3=O)N1C[C@@H]1N[C@@H]12 [MMC, mitomycin]
Body weight begin ([1]; 1 mg/kg, begin): 18.82 g
Body weight end ([1]; 1 mg/kg, end (day 14)): 29.29 g
Inhibition rate ([1]; 1 mg/kg): 51.5^Δ %
Tumor volume x ± s ([1]; 1 mg/kg): 2.23 ± 2.15 cm^3
Inhibition rate ([1]; 1 mg/kg, listed as mitomycin): 51.5%

B1: VH-LDP: VH domain of anti-type IV collagenase mAb 3G11, GGGGS spacer, lidamycin apoprotein LDP and His6-Tag; SEQ ID NO: 2 (protein)
chain: MQVKLQQSGTEVVKPGASVKLSCKASGYIFTSYDIDWVRQTPEQGLEWIGWIFPGEGSTEYNEKFKGRATLSVDKSSSTAYMELTRLTSEDSAVYFCARGDYYRRYFDLWGQGTTVTVSSGGGGSAPAFSVSPASGLSDGQSVSVSVSGAAAGETYYIAQCAPVGGQDACNPATATSFTTDASGAASFSFVVRKSYTGSTPEGTPVGSVDCATAACNLGAGNSGLDLGHVALTFGLEHHHHHH
modifications: fusion protein of Vh and LDP
immunohistochemical staining in mouse hepatoma sections [8]: positively stained
immunohistochemical staining in mouse normal liver sections [9]: negatively stained
solubility after refolding [10]: soluble in PBS solution
fraction existing in monomer state ([10]; after refolding): 75%
inhibition of type IV collagenase activity secreted by cancer cells [11]: inhibit significantly
binding activity to human hepatoma SMMC-7721 cells [12]: positive
binding activity to type IV collagenase [13]: positive

B2: VH-LDP-AE (conjugate)
chain: B1 chain
modifications: AE chromophore assembled; fusion protein of Vh and LDP
Inhibition rate ([1]; 0.125 mg/kg): 88.1% and 88.1*^ΔΔ %
Tumor volume x ± s ([1]; 0.125 mg/kg): 0.55 ± 0.24 cm^3
Inhibition rate ([1]; 0.25 mg/kg): 95.9% and 95.9**^ΔΔ %
Tumor volume x ± s ([1]; 0.25 mg/kg): 0.19 ± 0.21 cm^3
effect on growth of hepatoma 22 in mice ([1]; both 0.25 mg/kg and 0.125 mg/kg, more potent than free lidamycin 0.05 mg/kg (FIG. 11)): inhibited or retarded the growth
body weight loss and side-effects during the experiments ([1]; mouse, in vivo): No body weight loss and other severe side-effects were found
suppression of angiogenesis stimulated by bFGF [14]: significantly suppress angiogenesis
coefficient of drug interaction (CDI) ([15]; 10 μM of 5-fluorouracil plus 3 ng/ml of VH-LDP-AE): < 0.7
coefficient of drug interaction (CDI) ([15]; hydroxylcamptothecin (1 μM) plus VH-LDP-AE (3 ng/ml)): < 0.7
